Legend:
Aβ40 [1] = conditions: decreased lag phase; cited from earlier work
From the text: Almost all types of cells produce amyloid beta (Aβ), a peptide well recognized for its role in the development and progression of different stages of Alzheimer's disease (AD). The Aβ peptide is ~ 4 kDa and derived from the sequential processing of the higher molecular weight amyloid precursor protein by two membrane‐bound endoproteases, β‐ and γ‐secretase. Different C‐terminal Aβ heterogeneity results from processing by γ‐secretase, where Aβ40 represents the most abundant isoform (~ 90%) as compared to Aβ42 (~ 10%). Self‐assembled Aβ40/42 peptides into amyloid fib ... || Humanin (HN) is a secreted 21‐ to 24‐amino acid mitochondrial‐derived peptide. Certain amino acid residues in HN have been identified to be involved in different functions, including binding to Aβ [55, 56]. […] HN was identified previously as a binding partner of Aβ, likely modulating its aggregation pathways and counteracting its deleterious effects. […] The specific epitopes at the binding interface between HN and Aβ40 were identified, by proteolytic epitope excision and extraction in addition to affinity–mass spectrometric data analysis, to be HN (5–15) and Aβ (17–28). […] Inhibiting the 17–28 region of Aβ reduced aggregation of the neurotoxic amyloid fibrils and related cytotoxicity in SH‐SY5Y, a human neuroblastoma cell ... || (+ 1 further places)

Aβ40 [2] = conditions: HN and AChE compared; cited from earlier work
From the text: Amino acid residues involved in direct interactions between HN and Aβ40 were identified previously by molecular modeling. The specific epitopes at the binding interface between HN and Aβ40 were identified, by proteolytic epitope excision and extraction in addition to affinity–mass spectrometric data analysis, to be HN (5–15) and Aβ (17–28). […] Inhibiting the 17–28 region of Aβ reduced aggregation of the neurotoxic amyloid fibrils and related cytotoxicity in SH‐SY5Y, a human neuroblastoma cell ... || Humanin has been previously reported to bind amino acid residues 17–28 of Aβ (Fig. 1). AChE is also known to bind Aβ (1–16) and the Aβ (12–28) region (Fig. 1). Since the binding sites of AChE and HN on Aβ are overlapping, we previously investigated whether HN and AChE can simultaneously bind Aβ [79].

H1299 cells = assay: MTT cell viability, H1299; assay type: cell-based, human; conditions: AChE-ID media, 48 h, H1299; Fig. 7B
Protocol: Human NSCLC cell lines, A549 (ATCC CCL‐185) and H1299 (ATCC CRL‐5803), were purchased from the American Type Culture Collection (ATCC, Manassas, VA, USA). Cells were seeded as we reported earlier in 5 mL HyClone Dulbecco's modified Eagle's medium/nutrient mixture F‐12 (DMEM/F12) (GE Healthcare Life Sciences, Pittsburgh, PA, USA), supplemented with 10% Fetalgro bovine growth serum (FBS; RMBIO, Missoula, MT, USA), 50 U·mL^−1 penicillin, and […] streptomycin (Invitrogen, Life Technologies, Carlsbad, CA, USA) in 25‐cm^2 tissue culture flasks, and allowed to grow overnight in an incubator at 37 °C, 95% humidity, and 5% CO2. The cells were counted after trypan blue staining, with a hemocytometer.
The 3‐(4,5‐dimethylthiazol‐2‐yl)‐2,5‐diphenyl‐tetrazolium bromide (MTT) reduction assay (Sigma‐Aldrich), used to measure cell viability, was carried out as we reported earlier. […] The absorbance was measured at 570 nm in a plate reader. […]
Conditioned media were immunodepleted (ID) according to the methods previously described and our recently published report. […] The ID media were then carefully removed and analyzed for the presence of the target protein or peptide by ELISA. The same amount of protein (3 µL of 600 µg·mL^−1 total protein) of each sample was analyzed in the experiments. […]

B1: acetylcholinesterase (protein)
chain: EGREDAELLVTVRGGRLRGIRLKTPGGPVSAFLGIPFAEPPMGPRRFLPPEPKQPWSGVVDATTFQSVCYQYVDTLYPGFEGTEMWNPNRELSEDCLYLNVWTPYPRPTSPTPVLVWIYGGGFYSGASSLDVYDGRFLVQAERTVLVSMNYRVGAFGFLALPGSREAPGNVGLLDQRLALQWVQENVAAFGGDPTSVTLFGESAGAASVGMHLLSPPSRGLFHRAVLQSGAPNGPWATVGMGEARRRATQLAHLVGCPPGGTGGNDTELVACLRTRPAQVLVNHEWHVLPQESVFRFSFVPVVDGDFLSDTPEALINAGDFHGLQVLVGVVKDEGSYFLVYGAPGFSKDNESLISRAEFLAGVRVGVPQVSDLAAEAVVLHYTDWLHPEDPARLREALSDVVGDHNVVCPVAQLAGRLAAQGARVYAYVFEHRASTLSWPLWMGVPHGYEIEFIFGIPLDPSRNYTAEEKIFAQRLMRYWANFARTGDPNEPRDPKAPQWPPYTAGAQQYVSLDLRPLEVRRGLRAQACAFWNRFLPKLLSATDTLDEAERQWKAEFHRWSSYMVHWKNQFDHYSKQDRCSDL
- effect on Aβ40 aggregation (Aβ40 [1]): significantly accelerated the aggregation
- affinity for Aβ40 (Aβ40 [2]): comparable affinities
- effect of AChE immunodepletion on cell viability (H1299 cells): no effect

Source: PMC7714071, “Interaction of amyloid beta with humanin and acetylcholinesterase is modulated by ATP” (FEBS Open Bio, 2020)
